# Source: PMC10640585, “The E3 ligase Riplet promotes RIG-I signaling independent of RIG-I oligomerization” (Nature Communications, 2023)
# T1: biotinylated Avi-tagged RIG-I (Retinoic acid inducible gene-I) (human, UniProt O95786 1-925, biotin on the Avi tag (by BirA))
# T1 construct: RIG-I, human, full-length protein; Used alone (apo), pre-incubated with the RNA p3SLR14 (one RIG-I per RNA) or with p3dsRNA24 (two RIG-I per RNA); also called Avi-RIG-I; Apo-RIG-I; source: E. coli Rosetta 2(DE3), purified (Ni-NTA, heparin, SEC), biotinylated by BirA, SEC; not shown: His6, N-terminal, cleaved; SUMO, N-terminal, cleaved
# T1 sequence (looked up): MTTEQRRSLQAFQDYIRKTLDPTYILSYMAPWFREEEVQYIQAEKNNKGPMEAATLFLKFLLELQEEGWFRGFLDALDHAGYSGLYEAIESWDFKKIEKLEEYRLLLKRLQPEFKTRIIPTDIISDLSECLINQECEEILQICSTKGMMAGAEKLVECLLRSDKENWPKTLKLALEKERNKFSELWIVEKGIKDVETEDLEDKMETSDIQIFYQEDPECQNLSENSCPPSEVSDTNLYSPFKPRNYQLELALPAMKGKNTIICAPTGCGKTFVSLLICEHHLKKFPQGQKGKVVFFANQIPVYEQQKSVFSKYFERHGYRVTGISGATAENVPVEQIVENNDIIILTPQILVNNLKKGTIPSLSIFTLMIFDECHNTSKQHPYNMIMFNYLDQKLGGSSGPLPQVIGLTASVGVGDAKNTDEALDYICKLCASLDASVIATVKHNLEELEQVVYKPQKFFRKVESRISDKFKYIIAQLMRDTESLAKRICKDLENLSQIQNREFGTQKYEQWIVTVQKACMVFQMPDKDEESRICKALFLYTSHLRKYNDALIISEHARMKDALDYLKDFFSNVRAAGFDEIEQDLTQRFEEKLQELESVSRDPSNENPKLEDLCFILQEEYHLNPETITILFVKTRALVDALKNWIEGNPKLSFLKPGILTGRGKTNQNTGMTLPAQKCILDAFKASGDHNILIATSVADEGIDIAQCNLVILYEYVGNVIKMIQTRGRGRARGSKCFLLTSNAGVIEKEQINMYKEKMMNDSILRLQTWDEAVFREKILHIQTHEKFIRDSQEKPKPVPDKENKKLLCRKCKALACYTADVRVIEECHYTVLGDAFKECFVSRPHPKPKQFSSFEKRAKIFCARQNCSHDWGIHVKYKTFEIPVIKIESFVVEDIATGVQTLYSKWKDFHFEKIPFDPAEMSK
# T2: biotinylated Avi-tagged RIG-I (human, UniProt O95786 1-925, biotin on the Avi tag (by BirA))
# T2 construct: RIG-I (Retinoic acid inducible gene-I), human, full-length; Immobilised on the SPR chip as apo protein or pre-incubated with p3SLR14 (1:1.5) or p3dsRNA24 (2.4:1; two RIG-I on one RNA); also called Avi-RIG-I; biotinylated RIG-I; source: E. coli Rosetta 2(DE3), purified (Ni-NTA, ULP1, heparin, size exclusion), biotinylated by BirA, size exclusion; not shown: 6xHis, N-terminal, cleaved; SUMO, …
# T2 sequence (looked up): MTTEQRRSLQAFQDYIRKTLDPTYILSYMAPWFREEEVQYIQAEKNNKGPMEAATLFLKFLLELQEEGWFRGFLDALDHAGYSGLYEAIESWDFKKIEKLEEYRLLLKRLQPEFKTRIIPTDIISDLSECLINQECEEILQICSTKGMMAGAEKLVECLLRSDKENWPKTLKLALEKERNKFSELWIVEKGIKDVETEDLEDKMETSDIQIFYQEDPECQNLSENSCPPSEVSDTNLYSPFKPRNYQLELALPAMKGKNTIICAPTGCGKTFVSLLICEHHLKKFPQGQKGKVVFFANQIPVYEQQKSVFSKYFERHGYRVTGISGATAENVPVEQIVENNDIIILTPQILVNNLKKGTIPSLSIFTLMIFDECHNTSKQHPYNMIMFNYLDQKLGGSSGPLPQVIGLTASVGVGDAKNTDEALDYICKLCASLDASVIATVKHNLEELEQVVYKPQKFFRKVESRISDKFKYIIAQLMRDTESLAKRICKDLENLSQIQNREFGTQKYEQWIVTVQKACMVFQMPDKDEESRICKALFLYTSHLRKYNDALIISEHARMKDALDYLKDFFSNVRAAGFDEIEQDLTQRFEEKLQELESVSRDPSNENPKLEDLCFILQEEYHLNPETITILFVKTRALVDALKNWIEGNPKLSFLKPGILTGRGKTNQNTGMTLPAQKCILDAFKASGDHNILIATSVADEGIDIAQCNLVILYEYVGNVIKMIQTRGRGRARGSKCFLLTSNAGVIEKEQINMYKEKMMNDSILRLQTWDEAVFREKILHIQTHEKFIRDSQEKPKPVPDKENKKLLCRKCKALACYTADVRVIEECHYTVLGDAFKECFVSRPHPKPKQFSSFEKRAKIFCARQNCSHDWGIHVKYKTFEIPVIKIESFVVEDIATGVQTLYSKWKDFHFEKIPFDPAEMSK
# How the values were obtained:
# Conditions in all cases: both partners purified
# [1] = target: T1, biotinylated Avi-tagged RIG-I (Retinoic …); test: SPR; biotinylated RIG-I pre-incubated with p3dsRNA24 (2.4:1, 4 °C overnight; two RIG-I per RNA) immobilised on a streptavidin SADH chip; Riplet constructs as analyte in HBS-EP+, 50 µl/min, dissociation 180 s, OneStep mode, 1:1 model
# [2] = target: T1, biotinylated Avi-tagged RIG-I (Retinoic …); test: SPR; biotinylated apo-RIG-I (no RNA) immobilised on a streptavidin SADH chip; Riplet constructs as analyte in HBS-EP+, 50 µl/min, dissociation 180 s, OneStep mode, 1:1 model
# [3] = target: T1, biotinylated Avi-tagged RIG-I (Retinoic …); test: SPR; biotinylated RIG-I pre-incubated with p3SLR14 (1:1.5, 4 °C overnight) immobilised on a streptavidin SADH chip; Riplet constructs as analyte in HBS-EP+, 50 µl/min, dissociation 180 s, OneStep mode, 1:1 model
# [4] = target: T2, biotinylated Avi-tagged RIG-I; test: SPR; biotinylated RIG-I pre-incubated with p3dsRNA24 (2.4:1, 4 °C overnight; two RIG-I on one RNA) immobilised on streptavidin SADH chip; Riplet constructs 0.125-10 µM in HBS-EP+, 50 µl/min, dissociation 180 s, OneStep mode, 1:1 model
# [5] = target: T2, biotinylated Avi-tagged RIG-I; test: SPR; apo biotinylated RIG-I immobilised on streptavidin SADH chip; Riplet constructs 0.125-10 µM in HBS-EP+, 50 µl/min, dissociation 180 s, OneStep mode, 1:1 model
koff [1],kon [1],koff [2],kon [2],koff [3],kon [3],Kd [4],Kd [5],Kd [2],Binder
0.003 s⁻¹,450000 M⁻¹ s⁻¹,0.0034 s⁻¹,4600 M⁻¹ s⁻¹,0.013 s⁻¹,19000 M⁻¹ s⁻¹,,,,"Riplet full length (RING finger protein leading to RIG-I activation) (enzyme, human, UniProt Q8IUD6 1-432, looked up, Riplet, human, full length (1-432); also called Riplet-FL; Riplet WT; source: E. coli Rosetta 2(DE3), purified (Ni-NTA, SEC); not shown: His6, N-terminal, cleaved; SUMO, N-terminal, cleaved) MAGLGLGSAVPVWLAEDDLGCIICQGLLDWPATLPCGHSFCRHCLEALWGARDARRWACPTCRQGAAQQPHLRKNTLLQDLADKYRRAAREIQAGSDPAHCPCPGSSSLSSAAARPRRRPELQRVAVEKSITEVAQELTELVEHLVDIVRSLQNQRPLSESGPDNELSILGKAFSSGVDLSMASPKLVTSDTAAGKIRDILHDLEEIQEKLQESVTWKEAPEAQMQGELLEAPSSSSCPLPDQSHPALRRASRFAQWAIHPTFNLKSLSCSLEVSKDSRTVTVSHRPQPYRWSCERFSTSQVLCSQALSSGKHYWEVDTRNCSHWAVGVASWEMSRDQVLGRTMDSCCVEWKGTSQLSAWHMVKETVLGSDRPGVVGIWLNLEEGKLAFYSVDNQEKLLYECTISASSPLYPAFWLYGLHPGNYLIIKQVKV"
,,,,,,6.6 nM,700 nM,,"Riplet, full-length (Riplet-FL) (enzyme, human, UniProt Q8IUD6 1-432, looked up, Only the PrySpry domain is resolved in the cryo-EM maps; also called Riplet WT; E3 ligase Riplet; source: E. coli Rosetta 2(DE3), purified (Ni-NTA, ULP1 digestion, size exclusion); not shown: 6xHis, N-terminal, cleaved; SUMO, N-terminal, cleaved) MAGLGLGSAVPVWLAEDDLGCIICQGLLDWPATLPCGHSFCRHCLEALWGARDARRWACPTCRQGAAQQPHLRKNTLLQDLADKYRRAAREIQAGSDPAHCPCPGSSSLSSAAARPRRRPELQRVAVEKSITEVAQELTELVEHLVDIVRSLQNQRPLSESGPDNELSILGKAFSSGVDLSMASPKLVTSDTAAGKIRDILHDLEEIQEKLQESVTWKEAPEAQMQGELLEAPSSSSCPLPDQSHPALRRASRFAQWAIHPTFNLKSLSCSLEVSKDSRTVTVSHRPQPYRWSCERFSTSQVLCSQALSSGKHYWEVDTRNCSHWAVGVASWEMSRDQVLGRTMDSCCVEWKGTSQLSAWHMVKETVLGSDRPGVVGIWLNLEEGKLAFYSVDNQEKLLYECTISASSPLYPAFWLYGLHPGNYLIIKQVKV"
0.0085 s⁻¹,810000 M⁻¹ s⁻¹,0.073 s⁻¹,110000 M⁻¹ s⁻¹,0.067 s⁻¹,54000 M⁻¹ s⁻¹,,,700 nM,"Riplet-ΔRING (94-432) (domain or fragment, human, UniProt Q8IUD6 94-432, looked up, Riplet, human, residues 94-432 (CC and PrySpry domains, RING deleted); source: E. coli Rosetta 2(DE3), purified (Ni-NTA, SEC); not shown: His6, N-terminal, cleaved; SUMO, N-terminal, cleaved) AGSDPAHCPCPGSSSLSSAAARPRRRPELQRVAVEKSITEVAQELTELVEHLVDIVRSLQNQRPLSESGPDNELSILGKAFSSGVDLSMASPKLVTSDTAAGKIRDILHDLEEIQEKLQESVTWKEAPEAQMQGELLEAPSSSSCPLPDQSHPALRRASRFAQWAIHPTFNLKSLSCSLEVSKDSRTVTVSHRPQPYRWSCERFSTSQVLCSQALSSGKHYWEVDTRNCSHWAVGVASWEMSRDQVLGRTMDSCCVEWKGTSQLSAWHMVKETVLGSDRPGVVGIWLNLEEGKLAFYSVDNQEKLLYECTISASSPLYPAFWLYGLHPGNYLIIKQVKV"
